Assay results taken from article PMC10043283, “Neuraminidase 1 promotes renal fibrosis development in male mice” (Nature Communications, 2023).

Target: T1, Human NEU1 recombinant protein (human, UniProt Q99519 48-415)
T1 construct: human neuraminidase 1 (NEU1), recombinant; Amine-coupled to a CM5 chip; also called recombinant human NEU1; source: recombinant protein, gifted by Dr. Xiao Yibei lab
Assay: SPR; Biacore T200, 25 °C, HBS-EP+ pH 7.4; human NEU1 amine-coupled to CM5 chip (8000–10,000 RU); ALK5 recombinant proteins flowed at 7.80–500 nM; 1:1 binding model
Conditions: both partners purified

Kd: 3.14 nM
B1: human ALK5_(162-403aa) recombinant protein (domain or fragment, UniProt P36897 162-403, looked up)
chain: EDPSLDRPFISEGTTLKDLIYDMTTSGSGSGLPLLVQRTIARTIVLQESIGKGRFGEVWRGKWRGEEVAVKIFSSREERSWFREAEIYQTVMLRHENILGFIAADNKDNGTWTQLWLVSDYHEHGSLFDYLNRYTVTVEGMIKLALSTASGLAHLHMEIVGTQGKPAIAHRDLKSKNILVKKNGTCCIADLGLAVRHDSATDTIDIAPNHRVGTKRYMAPEVLDDSINMKHFESFKRADIYA
notes: human ALK5 (TGFβ type I receptor), amino acids 162-403; also called amino acid 162–403 region of ALK5; source: bought: Sino Biological Inc
